Consider one substance from patent US20250144035A1, “Method of Increasing Epithelial Permeability Using Nanoparticles” (Carnegie Mellon University, priority 2017, published 2025).

How the values of data set [1] were obtained: Following ten hours of fasting, mice were orally gavaged with PBS (for control) or nanoparticle suspensions (100 mg/kg unless otherwise specified). Two hours later, their initial blood sugar was measured, and the animals were placed under anesthesia. Their intestines were surgically exposed, and insulin was injected at the predetermined dose (1 unit per kg body weight unless otherwise specified) into the duodenum. The mice were closed and secured with tissue adhesive, then kept under anesthesia as their blood sugar levels were monitored each hour for five hours. For comparison to the current standard of insulin delivery, subcutaneous injections were given to additional mice, into the scruff on their necks. To determine specific insulin concentrations, blood samples were collected and separated via centrifugation. The serum was subjected to ELISA analysis for human insulin (LifeTechnologies®, Carlsbad, CA) per the instructions of the kit manufacturer.

The next data set has as its system mice. Kind of data set: Intestinal insulin delivery, blood glucose. The format is in vivo.

Turning to insulin, in data set [1] (intestinal insulin along with nanoparticles), the blood insulin concentration result is recorded as “slight elevations in blood insulin that persisted for at least four hours”. For the same substance, in data set [1] (subcutaneous injection), the “return of blood insulin to normal levels” value is given as “shortly after two hours” and the “time of spike in blood insulin concentration” value is no more than 30 min. In the data set on mice (1 U/kg subcutaneous), the blood glucose response result is given as “pronounced, but brief response”. Further, the “blood glucose, response to insulin dose” value in the data set on mice (increasing intestinal insulin dose, constant particle administration of 100 mg/kg) is “increased magnitude and duration of hypoglycemia”.
